Fold change data for one molecule are collected here from patent US20190270815A1 (WUXI BIOLOGICS IRELAND, published 2019).

What all share (experiment): ELISA, antibody coated, His-tagged PD-1 mutant supernatant; fold change vs silent alanine substitutions
In general terms: ELISA stands for enzyme-linked immunosorbent assay.

Test [1] concerns the target T1, hPD-1 ECD-His point mutant L 128 (to alanine) (human, UniProt Q15116 25-170).
T1 construct: extracellular domain
The procedure:
(§1) After interacting with the supernatant that contains quantified PD-1 mutant, HRP conjugated anti-His antibody (Rockland, Cat#200-303-382) was added as detection antibody. Absorbance was normalized according to the average of control mutants. After setting an additional cutoff to t4he binding fold change (<0.55), the final determined epitope residues were identified.

In test [2] the target is T2, hPD-1 ECD-His point mutant L 65 (to alanine) (human, UniProt Q15116 25-170).
T2 construct: extracellular domain
T2 sequence (Q15116 other isoform, or with tags, fused parts or gaps mutant): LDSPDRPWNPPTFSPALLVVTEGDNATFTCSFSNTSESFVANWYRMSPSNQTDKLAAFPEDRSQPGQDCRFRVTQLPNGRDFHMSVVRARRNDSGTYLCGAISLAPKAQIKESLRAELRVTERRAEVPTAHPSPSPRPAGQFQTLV
As for the experimental part:
as §1

The target in test [3] is T3, hPD-1 ECD-His point mutant N 49 (to alanine) (human, UniProt Q15116 25-170).
T3 construct: extracellular domain
T3 sequence (Q15116 other isoform, or with tags, fused parts or gaps mutant): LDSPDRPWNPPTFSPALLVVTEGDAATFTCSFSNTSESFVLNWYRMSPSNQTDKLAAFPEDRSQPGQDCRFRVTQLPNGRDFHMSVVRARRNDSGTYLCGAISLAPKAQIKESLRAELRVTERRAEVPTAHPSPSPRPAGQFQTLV
As for the experimental part:
as §1

Test [4] addresses T4, hPD-1 ECD-His point mutant Q 133 (to alanine) (human, UniProt Q15116 25-170).
T4 construct: extracellular domain
As for the experimental part:
as §1

The target of test [5] is T5, hPD-1 ECD-His point mutant F 106 (to alanine) (human, UniProt Q15116 25-170).
T5 construct: extracellular domain
T5 sequence (Q15116 other isoform, or with tags, fused parts or gaps mutant): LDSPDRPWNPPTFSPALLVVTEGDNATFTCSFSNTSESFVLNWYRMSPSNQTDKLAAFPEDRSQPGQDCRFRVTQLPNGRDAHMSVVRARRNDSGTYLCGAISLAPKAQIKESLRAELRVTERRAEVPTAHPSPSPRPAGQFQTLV
The procedure: as §1

The target of test [6] is T6, hPD-1 ECD-His point mutant M 108 (to alanine) (human, UniProt Q15116 25-170).
T6 construct: extracellular domain
T6 sequence (Q15116 other isoform, or with tags, fused parts or gaps mutant): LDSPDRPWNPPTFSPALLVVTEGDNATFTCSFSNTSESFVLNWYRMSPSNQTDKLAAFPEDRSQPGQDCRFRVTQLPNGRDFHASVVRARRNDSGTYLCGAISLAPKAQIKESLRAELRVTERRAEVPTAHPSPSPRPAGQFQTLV
As for the experimental part: as §1

In test [7] the target is T7, hPD-1 ECD-His point mutant P 39 (to alanine) (human, UniProt Q15116 25-170).
T7 construct: extracellular domain
T7 sequence (Q15116 other isoform, or with tags, fused parts or gaps mutant): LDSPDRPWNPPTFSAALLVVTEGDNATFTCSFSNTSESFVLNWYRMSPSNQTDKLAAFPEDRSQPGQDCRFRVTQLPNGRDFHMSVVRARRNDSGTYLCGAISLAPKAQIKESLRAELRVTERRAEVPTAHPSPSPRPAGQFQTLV
As for the experimental part:
as §1

Test [8] has as its target T8, hPD-1 ECD-His point mutant A 50 (to glycine) (human, UniProt Q15116 25-170).
T8 construct: extracellular domain
As for the experimental part: as §1

The target in test [9] is T9, hPD-1 ECD-His point mutant I 134 (to alanine) (human, UniProt Q15116 25-170).
T9 construct: extracellular domain
T9 sequence (Q15116 other isoform, or with tags, fused parts or gaps mutant): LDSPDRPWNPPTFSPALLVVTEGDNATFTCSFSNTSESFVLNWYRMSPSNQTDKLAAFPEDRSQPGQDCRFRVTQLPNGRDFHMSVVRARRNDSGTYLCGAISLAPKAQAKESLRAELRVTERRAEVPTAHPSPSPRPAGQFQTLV
The procedure:
as §1

The target of test [10] is T10, hPD-1 ECD-His point mutant R 94 (to alanine) (human, UniProt Q15116 25-170).
T10 construct: extracellular domain
T10 sequence (Q15116 other isoform, or with tags, fused parts or gaps mutant): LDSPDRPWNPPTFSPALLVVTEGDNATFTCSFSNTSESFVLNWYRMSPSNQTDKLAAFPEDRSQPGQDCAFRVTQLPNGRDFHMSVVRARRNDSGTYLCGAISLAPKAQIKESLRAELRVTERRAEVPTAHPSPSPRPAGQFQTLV
The procedure:
as §1

In test [11] the target is T11, hPD-1 ECD-His point mutant F 95 (to alanine) (human, UniProt Q15116 25-170).
T11 construct: extracellular domain
T11 sequence (Q15116 other isoform, or with tags, fused parts or gaps mutant): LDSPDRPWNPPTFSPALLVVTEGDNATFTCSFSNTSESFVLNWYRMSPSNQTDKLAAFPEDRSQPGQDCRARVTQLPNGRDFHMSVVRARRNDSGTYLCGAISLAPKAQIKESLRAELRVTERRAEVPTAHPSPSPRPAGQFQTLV
As for the experimental part:
as §1

The target in test [12] is T12, hPD-1 ECD-His point mutant L 142 (to alanine) (human, UniProt Q15116 25-170).
T12 construct: extracellular domain
T12 sequence (Q15116 other isoform, or with tags, fused parts or gaps mutant): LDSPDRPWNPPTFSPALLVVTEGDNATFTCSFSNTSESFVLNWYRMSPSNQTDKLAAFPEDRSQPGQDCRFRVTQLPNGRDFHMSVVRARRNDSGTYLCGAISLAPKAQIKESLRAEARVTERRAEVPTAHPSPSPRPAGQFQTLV
The procedure: as §1

Test [13] concerns the target T13, hPD-1 ECD-His point mutant A 129 (to glycine) (human, UniProt Q15116 25-170).
T13 construct: extracellular domain
The procedure:
as §1

The target in test [14] is T14, hPD-1 ECD-His point mutant A 132 (to glycine) (human, UniProt Q15116 25-170).
T14 construct: extracellular domain
T14 sequence (Q15116 other isoform, or with tags, fused parts or gaps mutant): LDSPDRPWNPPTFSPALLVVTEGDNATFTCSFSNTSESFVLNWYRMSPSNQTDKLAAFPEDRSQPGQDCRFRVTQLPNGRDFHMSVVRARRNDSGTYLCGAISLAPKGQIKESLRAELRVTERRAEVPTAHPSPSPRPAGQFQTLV
The procedure:
as §1

For test [15], the target named is T15, hPD-1 ECD-His point mutant A 113 (to glycine) (human, UniProt Q15116 25-170).
T15 construct: extracellular domain
T15 sequence (Q15116 other isoform, or with tags, fused parts or gaps mutant): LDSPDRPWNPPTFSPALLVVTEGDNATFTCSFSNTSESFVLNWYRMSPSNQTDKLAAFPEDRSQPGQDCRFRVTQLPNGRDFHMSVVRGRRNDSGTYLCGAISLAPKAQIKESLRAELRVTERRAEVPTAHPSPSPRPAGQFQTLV
As for the experimental part: as §1

The target in test [16] is T16, hPD-1 ECD-His point mutant P 130 (to alanine) (human, UniProt Q15116 25-170).
T16 construct: extracellular domain
T16 sequence (Q15116 other isoform, or with tags, fused parts or gaps mutant): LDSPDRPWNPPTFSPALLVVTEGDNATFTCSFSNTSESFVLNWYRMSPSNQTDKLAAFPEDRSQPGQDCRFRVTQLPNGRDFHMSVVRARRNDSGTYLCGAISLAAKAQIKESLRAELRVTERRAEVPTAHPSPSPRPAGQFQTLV
The procedure:
as §1

The target of test [17] is T17, hPD-1 ECD-His point mutant C 123 (to alanine) (human, UniProt Q15116 25-170).
T17 construct: extracellular domain
T17 sequence (Q15116 other isoform, or with tags, fused parts or gaps mutant): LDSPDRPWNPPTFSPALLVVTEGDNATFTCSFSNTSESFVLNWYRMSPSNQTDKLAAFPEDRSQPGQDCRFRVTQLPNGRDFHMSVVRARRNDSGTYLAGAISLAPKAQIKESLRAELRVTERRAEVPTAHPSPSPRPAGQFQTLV
As for the experimental part:
as §1

Test [18] concerns the target T18, hPD-1 ECD-His point mutant G 47 (to alanine) (human, UniProt Q15116 25-170).
T18 construct: extracellular domain
As for the experimental part:
as §1

In test [19] the target is T19, hPD-1 ECD-His point mutant V 64 (to alanine) (human, UniProt Q15116 25-170).
T19 construct: extracellular domain
T19 sequence (Q15116 other isoform, or with tags, fused parts or gaps mutant): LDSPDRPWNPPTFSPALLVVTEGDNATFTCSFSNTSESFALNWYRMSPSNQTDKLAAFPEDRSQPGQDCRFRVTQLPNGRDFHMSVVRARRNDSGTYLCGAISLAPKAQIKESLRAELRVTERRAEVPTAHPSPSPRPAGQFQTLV
As for the experimental part:
as §1

Test [20] addresses T20, hPD-1 ECD-His point mutant F 52 (to alanine) (human, UniProt Q15116 25-170).
T20 construct: extracellular domain
As for the experimental part: as §1

For test [21], the target named is T21, hPD-1 ECD-His point mutant S 137 (to alanine) (human, UniProt Q15116 25-170).
T21 construct: extracellular domain
T21 sequence (Q15116 other isoform, or with tags, fused parts or gaps mutant): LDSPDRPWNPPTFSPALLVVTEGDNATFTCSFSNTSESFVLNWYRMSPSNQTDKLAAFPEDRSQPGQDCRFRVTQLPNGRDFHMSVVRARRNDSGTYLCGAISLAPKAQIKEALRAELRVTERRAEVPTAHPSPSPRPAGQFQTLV
The procedure: as §1

In test [22] the target is T22, hPD-1 ECD-His point mutant D 85 (to alanine) (human, UniProt Q15116 25-170).
T22 construct: extracellular domain
T22 sequence (Q15116 other isoform, or with tags, fused parts or gaps mutant): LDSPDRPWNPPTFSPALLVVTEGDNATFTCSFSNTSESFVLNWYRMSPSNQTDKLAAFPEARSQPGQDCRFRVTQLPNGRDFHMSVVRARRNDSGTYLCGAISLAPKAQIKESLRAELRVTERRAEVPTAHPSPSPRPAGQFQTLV
The procedure:
as §1

Test [23] addresses T23, hPD-1 ECD-His point mutant F 82 (to alanine) (human, UniProt Q15116 25-170).
T23 construct: extracellular domain
As for the experimental part:
as §1

Test [24] deals with T24, hPD-1 ECD-His point mutant W 67 (to alanine) (human, UniProt Q15116 25-170).
T24 construct: extracellular domain
T24 sequence (Q15116 other isoform, or with tags, fused parts or gaps mutant): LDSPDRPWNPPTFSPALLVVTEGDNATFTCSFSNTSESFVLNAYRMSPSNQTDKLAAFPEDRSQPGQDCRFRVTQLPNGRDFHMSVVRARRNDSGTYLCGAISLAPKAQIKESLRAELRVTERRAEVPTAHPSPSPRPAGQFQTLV
As for the experimental part: as §1

T8 sequence (Q15116 other isoform, or with tags, fused parts or gaps mutant): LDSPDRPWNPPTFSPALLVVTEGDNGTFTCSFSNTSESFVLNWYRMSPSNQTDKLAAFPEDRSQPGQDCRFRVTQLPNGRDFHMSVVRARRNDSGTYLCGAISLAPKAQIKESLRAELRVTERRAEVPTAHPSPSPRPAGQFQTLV
T4 sequence (Q15116 other isoform, or with tags, fused parts or gaps mutant): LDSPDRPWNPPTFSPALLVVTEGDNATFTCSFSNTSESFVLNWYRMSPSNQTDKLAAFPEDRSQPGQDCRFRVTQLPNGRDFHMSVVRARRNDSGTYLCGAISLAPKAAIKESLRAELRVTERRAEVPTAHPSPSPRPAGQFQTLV
T13 sequence (Q15116 other isoform, or with tags, fused parts or gaps mutant): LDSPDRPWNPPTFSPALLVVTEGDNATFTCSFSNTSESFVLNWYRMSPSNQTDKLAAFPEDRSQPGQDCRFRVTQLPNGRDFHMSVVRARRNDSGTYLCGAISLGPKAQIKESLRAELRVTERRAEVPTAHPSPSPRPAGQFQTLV
T23 sequence (Q15116 other isoform, or with tags, fused parts or gaps mutant): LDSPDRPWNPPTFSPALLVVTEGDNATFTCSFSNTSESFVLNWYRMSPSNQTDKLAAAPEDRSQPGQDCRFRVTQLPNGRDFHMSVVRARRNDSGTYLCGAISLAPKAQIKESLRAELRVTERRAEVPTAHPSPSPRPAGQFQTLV
T1 sequence (Q15116 other isoform, or with tags, fused parts or gaps mutant): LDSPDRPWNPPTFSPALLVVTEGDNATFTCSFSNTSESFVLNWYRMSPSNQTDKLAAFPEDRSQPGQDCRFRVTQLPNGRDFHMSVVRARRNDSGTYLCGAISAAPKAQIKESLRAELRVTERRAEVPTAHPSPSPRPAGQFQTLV
T18 sequence (Q15116 other isoform, or with tags, fused parts or gaps mutant): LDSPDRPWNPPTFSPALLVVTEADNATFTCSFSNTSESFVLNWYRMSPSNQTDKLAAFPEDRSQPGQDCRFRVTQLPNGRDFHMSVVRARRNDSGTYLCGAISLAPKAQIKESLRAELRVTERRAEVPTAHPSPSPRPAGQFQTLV
T20 sequence (Q15116 other isoform, or with tags, fused parts or gaps mutant): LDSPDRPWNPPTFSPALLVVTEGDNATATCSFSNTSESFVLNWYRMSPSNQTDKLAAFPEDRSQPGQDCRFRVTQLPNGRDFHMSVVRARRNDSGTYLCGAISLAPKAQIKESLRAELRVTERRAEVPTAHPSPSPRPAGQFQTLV

B1: 1.103.11 hAb (antibody, V domains shown)
VH: QLQLQESGPGLVKPSETLTLTCTVSADSISSTTYYWVWIRQPPGKGLEWIGSISYSGSTYYNPSLKSRVTVSVDTSKNQFSLKLNSVAATDTALYYCARHLGYNGRYLPFDYWGQGTLVTVSS
VL: QSALTQPASVSGSPGQSITISCTGTSSDVGFYNYVSWYQQHPGKAPELMIYDVSNRPSGVSDRFSGSKSGNTASLTISGLQAEDEADYYCSSYTNISTWVFGGGTKLTVL
notes: fully human monoclonal antibody with a human constant region of IgG4 isotype
Consider B1, for which the fold change in test [1] turned out to be 0.32; in [2], 0.75; in test [3], 0.73; in test [4] it was 0.37; in test [5] it was 0.41; in test [6] it was 0.56. Further, the fold change in [7] was found to be 0.55; in [8] it was 0.73; in [9], 0.69; in test [10] it was 0.7; in test [11], 0.63; in [12], 0.44. Also, the fold change in test [13] came out at 0.22; in test [14] it was 0.53; in test [15], 0.73; in test [16], 0.41; in test [17], 0.46; in test [18], 0.77. Moreover, the fold change was 0.32 in [19]; 0.59 in test [20]; 0.62 in test [21]; 0.24 in [22]; 0.65 in test [23]; 0.76 in [24].
